We go through 2 substances from patent US20170192009A1.

Experiment [1] addresses GFP-hIL6 fusion protein (N-terminal 6x His-tag, mGFP, gs linker, human interleukin-6), purified (human). The experiment is described as follows: flow cytometry of permeabilized E. coli IT cells displaying the binder-mRFP-CBD on inclusion bodies, treated with GFP-IL6; GFP channel. On the technique in general: A flow cytometer gives signals particle by particle.
Experiment [2] shares this target. Briefly: flow cytometry of permeabilized IT cells treated with GFP-IL6.
A further experiment deals with sfGFP. Briefly: flow cytometry of permeabilized IT cells, treated with sfGFP; GFP channel [panel sfGFP].
The target in experiment [3] is GFP-hIL6 fusion protein (N-terminal 6x His-tag, mGFP, gs linker, human interleukin-6), purified (human). Briefly: flow cytometry of permeabilized IT cells, treated with mGFP-IL6; GFP channel [panel IL-6].

Turning to “InVLR5c-mRFP-CBD fusion protein (In-VLR5c repebody fused to mRFP and family II CBD, displayed on inclusion bodies in permeabilized E. coli IT cells) (designed binder)”, in experiment [1], the GFP fluorescence value is 17. Besides, the GFP fluorescence in experiment [2] came to 10.

negative control (f): the GFP fluorescence value in the experiment with sfGFP stood at 15.2; in experiment [3] it was 26.2.
